Data reported in patent US20110319600A1.

B1: E-2 monoclonal antibody (antibody, V domains shown)
VH: QVQLQESGPGLVKPLQTLSLTCVVSGDSISRGGYYWSWVRQPPERGLEWIGDIYHSGSTNYNPALKSRTTISVETSKNQFSLQLNSVTAADTAVYYCAREPPPDYSDYKVGKGYFDYWGQGALVTVSS
VL: EIVLAQSPATLSLSPGERATLSCRASETVDTYLAWYQQKPGQAPRLLINDASKRATGIPARFSGSGSGTDFTLTISGLEPEDFAVYWCQQHSNWPPTFGQGSRLEIK
B2: B-3 monoclonal antibody (antibody, V domains shown)
VH: QVKLVQSGGGAVQPGRSLRLSCEASGFDFTVYDIHWVRQAPGKGLEWVASIWHNGGKAYYADSVKGRFTVSRDNPQKTVYLQMSGLRPEDTATYYCAREFPFMGIYDYGMDAWGQGTTVTVAS
VL: QSVLAQPPSASGTPGQRVIISCSGTSSNIGGNSVNWYQHPPGAAPRLLIYTTDQRPSGVPDRFSGSKSGTSASLAISGLQSEDEADYYCEVWDDSLTRPVFGGGTKLTVL

Tests used:
[1] = target: hemagglutinin (HA) of human influenza B virus, B/Malaysia/2506/04 strain (human influenza B virus, B/Malaysia/2506/04 strain)
[2] = target: hemagglutinin (HA) of human influenza B virus, B/Mie/1/93 strain (human influenza B virus, B/Mie/1/93 strain)
[3] = target: hemagglutinin (HA) of human influenza B virus, B/Shanghai/261/02 strain (human influenza B virus, B/Shanghai/261/02 strain)
[4] = target: hemagglutinin (HA) of human influenza B virus, B/Victoria/2/87 strain (human influenza B virus, B/Victoria/2/87 strain)
[5] = target: hemagglutinin (HA) of human influenza B virus, B/Malaysia/2506/04 strain (human influenza B virus, B/Malaysia/2506/04 strain); test: cell-based or functional assay

Sequence of hemagglutinin (HA) of human influenza B virus, B/Victoria/2/87 strain (human influenza B virus, B/Victoria/2/87 strain) (P22092 16-585): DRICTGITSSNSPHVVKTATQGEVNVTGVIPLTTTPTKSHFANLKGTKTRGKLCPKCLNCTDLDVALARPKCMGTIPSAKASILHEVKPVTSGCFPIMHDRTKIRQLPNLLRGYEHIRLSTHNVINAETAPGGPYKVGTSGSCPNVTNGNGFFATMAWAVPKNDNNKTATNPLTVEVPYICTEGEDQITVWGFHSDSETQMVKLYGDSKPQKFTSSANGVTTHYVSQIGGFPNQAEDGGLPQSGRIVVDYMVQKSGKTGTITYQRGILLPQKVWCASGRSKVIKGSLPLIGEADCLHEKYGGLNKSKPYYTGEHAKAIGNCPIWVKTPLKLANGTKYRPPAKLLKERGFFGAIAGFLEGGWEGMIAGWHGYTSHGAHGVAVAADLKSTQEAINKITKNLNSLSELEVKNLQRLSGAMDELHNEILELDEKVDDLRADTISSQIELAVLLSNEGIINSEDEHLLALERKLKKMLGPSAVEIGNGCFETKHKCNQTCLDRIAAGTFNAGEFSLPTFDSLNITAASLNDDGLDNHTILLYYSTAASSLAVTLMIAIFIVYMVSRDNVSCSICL

Binder | staining activity [1] | staining activity [2] | staining activity [3] | staining activity [4] | HI activity [5] | Neutralization activity (% inhibition) [5]
B1 | 128 | 128 | > 128 | > 128 | < 2 | 37.8 % inhibition
B2 | 8 | 32 | 32 | 32 | < 2 | 31.7 % inhibition
